The values below come from US10947270B2, “Targeted prodrug cytosine deaminase fusion carrier and application thereof” (National Yang-Ming University, priority 2015, dated 2021).

Data set [1] in a line: Enzyme kinetic analysis of EcCD series fusion proteins, substrate 5-FC. The format is biochemical. The source says:
FIGS. 11A-11D show the activity and kinetics analysis of EcCD series fusion protein enzymes, and the EcCD series proteins are combined with 5-FC at different concentrations for reaction. Respectively calculate the 5-FU formation reaction rate shown in FIG. 11A, 5-FC consumption reaction rate shown in FIG. 10B, uracil formation reaction rate shown in FIG. 10C and cytosine consumption reaction rate shown in FIG. 10D, substitute Michaelis-Menten formula, and calculate the base mass (Kcat) and Km value catalyzed by each mol enzyme in unit time.

Data set [2] is described as follows: Enzyme kinetic analysis of EcCD series fusion proteins, substrate cytosine. In kind it is biochemical. The source says: FIGS. 11A-11D show the activity and kinetics analysis of EcCD series fusion protein enzymes, and the EcCD series proteins are combined with 5-FC at different concentrations for reaction. Respectively calculate the 5-FU formation reaction rate shown in FIG. 11A, 5-FC consumption reaction rate shown in FIG. 10B, uracil formation reaction rate shown in FIG. 10C and cytosine consumption reaction rate shown in FIG. 10D, substitute Michaelis-Menten formula, and calculate the base mass (Kcat) and Km value catalyzed by each mol enzyme in unit time. […]

Data set [3] can be described thus: Relative substrate selectivity of cytosine deaminase enzyme for 5-FC and cytosine (formula 1). The format is biochemical. The conditions noted are these: for [Kcat/Km(5-FC)]/{[Kcat/Km(cytosine)] + [Kcat/Km(5-FC)]}: relative substrate selectivity to 5-FC. The source says:
Evaluation of the relative substrate selectivity of cytosine deaminase enzyme for 5-FC and Cytosine can be expressed by the following formula 1,
The higher the value, the higher the selectivity of the enzyme to the 5-FC substrate.

The subject of data set [4] is U87MG, HUVEC and MCF-7 cells. As to the kind of experiment: Immunofluorescence of binding and distribution of EcCD fusion proteins in cells. In kind it is cell-based, human. The conditions noted are these: 37° C., 2 hours. How it is done:
FIGS. 15A-15C show the binding and distribution of EcCD fusion proteins in U87MG, HUVEC and MCF-7 cell strain. The immunofluorescence staining is used to observe and experiment the EcCD fusion protein, which are respectively acted with U87MG cells in FIG. 15A, HUVEC cells in FIG. 15B and MCF-7 cells in FIG. 15C for 2 hours at 37° C., then fixed with 2% para-formadehyde, the fixed cells are first permeabilized with 0.1% Triton X-100 for 10 minutes, after that, cultured with 1% BSA blocking (dissolved in PBS containing Ca^2+, Mg^2+) for 1 hour at room temperature, then add a 1st antibody (Rabbit anti-His^6tag, Mouse anti-human CD51/61αvβ3 integrin), and then add a 2nd antibody (Anti-rabbit IgG-CF640R, Anti-mouse IgG-Alexa488), the protein distribution is observed by conjugated fluorescence microscope. (Green signal: αvβ3 integrin; red signal: anti-His^6tag; blue signal: Hoechst 33342 cell nucleus stain) (Scale bars: 20 μm)
Immunofluorescence is used to observe the distribution of the protein bound with cell in the cell. U87MG, HUVEC and MCF-7 cells act with culture medium containing EcCD_WT, RGD4C-EcCD_WT, EcCD_D314A and RGD4C-EcCD_D314A proteins at 37° C. for 2 hours, stain the cell, and observe protein distribution by the conjugated fluorescence microscopy.

The conditions of data set [5]: literature, Biochemistry 2004, 43, 8957-8964; cited from earlier work.
In data set [6] the target is αvβ3 integrin (Homo sapiens, UniProt P05106+P06756). As to the kind of experiment: ELISA binding of EcCD series fusion protein and αvβ3 integrin. The source says: FIGS. 13A-13B show the binding activity and specificity test of EcCD fusion protein and αvβ3 integrin receptor. […] (***compared with untreated RGDfv group, P value<0.001, indicating a statistically significant difference)
αvβ3 integrin, sequence (P06756 31-889 limits assumed): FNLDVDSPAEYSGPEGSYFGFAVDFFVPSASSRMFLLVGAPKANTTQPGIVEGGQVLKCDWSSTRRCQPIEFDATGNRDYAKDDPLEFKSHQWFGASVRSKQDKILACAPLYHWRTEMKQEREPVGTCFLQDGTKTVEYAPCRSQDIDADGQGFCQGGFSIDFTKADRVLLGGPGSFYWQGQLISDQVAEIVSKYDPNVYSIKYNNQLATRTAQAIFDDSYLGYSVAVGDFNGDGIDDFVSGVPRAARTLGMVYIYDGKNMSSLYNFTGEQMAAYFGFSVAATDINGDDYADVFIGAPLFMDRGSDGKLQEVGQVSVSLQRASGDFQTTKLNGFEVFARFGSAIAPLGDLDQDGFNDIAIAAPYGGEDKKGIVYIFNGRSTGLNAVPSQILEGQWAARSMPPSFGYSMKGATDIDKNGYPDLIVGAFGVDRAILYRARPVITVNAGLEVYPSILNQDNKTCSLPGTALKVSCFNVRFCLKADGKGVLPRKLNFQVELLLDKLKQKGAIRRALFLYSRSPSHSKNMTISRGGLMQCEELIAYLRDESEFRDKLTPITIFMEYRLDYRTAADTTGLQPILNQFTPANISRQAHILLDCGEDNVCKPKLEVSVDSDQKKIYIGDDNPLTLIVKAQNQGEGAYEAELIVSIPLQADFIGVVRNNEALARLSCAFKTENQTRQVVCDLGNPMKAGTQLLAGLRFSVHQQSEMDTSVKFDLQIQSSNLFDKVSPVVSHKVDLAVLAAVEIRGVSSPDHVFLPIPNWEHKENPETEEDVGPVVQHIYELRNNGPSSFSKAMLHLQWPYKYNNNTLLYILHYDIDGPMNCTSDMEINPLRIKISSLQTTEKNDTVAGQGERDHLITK
αvβ3 integrin, sequence (P06756 891-1048 partner limits assumed): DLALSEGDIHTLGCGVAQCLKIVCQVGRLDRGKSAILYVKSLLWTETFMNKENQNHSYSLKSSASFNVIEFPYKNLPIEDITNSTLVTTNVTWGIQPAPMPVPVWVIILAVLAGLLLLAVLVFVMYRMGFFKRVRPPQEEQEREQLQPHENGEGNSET
αvβ3 integrin, sequence (P05106 27-788): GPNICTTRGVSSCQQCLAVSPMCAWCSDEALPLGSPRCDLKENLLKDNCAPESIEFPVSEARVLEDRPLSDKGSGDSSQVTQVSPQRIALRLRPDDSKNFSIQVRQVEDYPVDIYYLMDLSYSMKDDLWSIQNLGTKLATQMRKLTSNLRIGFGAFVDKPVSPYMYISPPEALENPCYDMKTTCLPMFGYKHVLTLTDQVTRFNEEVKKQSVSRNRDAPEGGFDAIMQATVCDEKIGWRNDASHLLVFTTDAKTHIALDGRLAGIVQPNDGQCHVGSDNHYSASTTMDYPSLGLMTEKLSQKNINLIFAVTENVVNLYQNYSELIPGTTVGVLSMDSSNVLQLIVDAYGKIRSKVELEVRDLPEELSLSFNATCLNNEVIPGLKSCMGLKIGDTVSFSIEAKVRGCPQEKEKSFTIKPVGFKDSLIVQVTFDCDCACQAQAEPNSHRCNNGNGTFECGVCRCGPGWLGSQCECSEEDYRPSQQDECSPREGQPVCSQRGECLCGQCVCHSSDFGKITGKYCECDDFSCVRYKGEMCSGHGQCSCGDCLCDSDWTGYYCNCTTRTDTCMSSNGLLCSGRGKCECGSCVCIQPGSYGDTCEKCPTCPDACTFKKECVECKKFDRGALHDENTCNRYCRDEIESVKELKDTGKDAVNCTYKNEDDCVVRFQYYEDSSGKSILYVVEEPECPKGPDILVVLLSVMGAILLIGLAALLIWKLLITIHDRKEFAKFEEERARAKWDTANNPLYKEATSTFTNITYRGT
To confirm the binding ability of RGD4C peptide and αvβ3 integrin, the affinity of the protein and αvβ3 integrin is confirmed by ELISA method. […] This experiment confirms that RGD4C-EcCD_WT and RGD4C-EcCD_D314A have the binding activity of αvβ3 integrin, and this binding has the specificity of RGD4C peptide αvβ3 integrin.
(In general: An ELISA detects its analyte on a solid surface through an enzyme-linked reagent.)

Data set [7] deals with U87MG, HUVEC cells. As to the kind of experiment: RGDfv peptide competition of EcCD fusion protein binding to cells. The format is cell-based, human. The conditions noted are these: RGDfv peptide at 10-fold relative concentration. How it is done: FIGS. 14A-14E show the binding activity and specificity test of EcCD fusion protein and U87MG, HUVEC and MCF-7 cell strain. […] (***compared to the untreated RGDfv group, P value<0.001, indicating a statistically significant difference)
It is confirmed from the above experimental results that the EcCD series protein fused to the RGD4C peptide has the binding activity with the expressing αvβ3 integrin cell strain, and the binding has the specificity of the RGD4C peptide and αvβ3 integrin of the cell expression, and also confirmed that the D314A mutation will not affect the binding activity of the RGD4C peptide and αvβ3 integrin.

The mark [8] stands for this setting: 5-FC consumption (Table 5), listed as RGD4C-EcCDWT.
The mark [9] stands for this setting: 5-FU generation, listed as RGD4C-EcCDWT.
[10] abbreviates: cytosine consumption, listed as RGD4C-EcCDWT.
[11] abbreviates: uracil generation, listed as RGD4C-EcCDWT.

Several values for one entry are separate records, joined by “and”; a condition that tells them apart may be missing. Identical values can stand only once. Like-named read-outs stand apart in the source and are kept apart here.

B1: EcCD_WT: E. coli. cytosine deaminase (EcCD), wild type, without target molecule (protein)
chain: MSNNALQTIINARLPGEEGLWQIHLQDGKISAIDAQSGVMPITENSLDAEQGLVIPPFVEPHIHLDTTQTAGQPNWNQSGTLFEGIERWAERKALLTHDDVKQRAWQTLKWQIANGIQHVRTHVDVSDATLTALKAMLEVKQEVAPWIDLQIVAFPQEGILSYPNGEALLEEALRLRADVVGAIPHFEFTREYGVESLHKTFALAQKYDRLIDVHCDEIDDEQSRFVETVAALAHHEGMGARVTASHTTAMHSYNGAYTSRLFRLLKMSGINFVANPLVNIHLQGRFDTYPKRRGITRVKEMLESGINVCFGHDDVFDPWYPLGTANMLQVLHMGLHVCQLMGYGQINDGLNLITHHSARTLNLQDYGIAAGNSANLIILPAENGFDALRRQVPVRYSVRGGKVIASTQPAQTTVYLEQPEAIDYKRLEHHHHHH
modifications: EcCD_WT
notes: E. coli. cytosine deaminase (EcCD), wild type, without target molecule
As a reminder, the Km is the concentration of substrate that gives half-maximal velocity. On to B1, for which the Kcat is 9.2 ± 0.8 s⁻¹ and 8.8 ± 0.8 s⁻¹ in data set [1] (5-FC consumption (Table 5)); 8.8 ± 0.9 s⁻¹ and 9.2 ± 0.6 s⁻¹ in data set [1] (5-FU generation); 132.0 ± 5.0 s⁻¹ in data set [2] (cytosine consumption); 157.3 ± 2.4 s⁻¹ in data set [2] (uracil generation). Further, the Km in data set [1] (5-FC consumption (Table 5)) was 2800 µM and 2700 µM; in data set [1] (5-FU generation), 2900 ± 800 µM; in data set [2] (cytosine consumption), 1300 ± 100 µM; in data set [2] (uracil generation), 1600 µM and 1700 µM. The entries for the “[Kcat/Km(5-FC)]/{[Kcat/Km(cytosine)] + [Kcat/Km(5-FC)]}” value (“[Kcat/Km(5-FC)]/{[Kcat/Km(cytosine)] +” for short) in data set [3], in data set [3] (listed as EcCDWT) and in data set [5] were 0.032, 0.033 and 0.027, respectively. For the same molecule, the “binding with cells” value in data set [4] is “do not have the ability of binding with U87MG and HUVEC cells”.

B2: EcCD_D314A: E. coli. cytosine deaminase (EcCD) mutant D314A, without target molecule (protein)
chain: MSNNALQTIINARLPGEEGLWQIHLQDGKISAIDAQSGVMPITENSLDAEQGLVIPPFVEPHIHLDTTQTAGQPNWNQSGTLFEGIERWAERKALLTHDDVKQRAWQTLKWQIANGIQHVRTHVDVSDATLTALKAMLEVKQEVAPWIDLQIVAFPQEGILSYPNGEALLEEALRLRADVVGAIPHFEFTREYGVESLHKTFALAQKYDRLIDVHCDEIDDEQSRFVETVAALAHHEGMGARVTASHTTAMHSYNGAYTSRLFRLLKMSGINFVANPLVNIHLQGRFDTYPKRRGITRVKEMLESGINVCFGHDAVFDPWYPLGTANMLQVLHMGLHVCQLMGYGQINDGLNLITHHSARTLNLQDYGIAAGNSANLIILPAENGFDALRRQVPVRYSVRGGKVIASTQPAQTTVYLEQPEAIDYKRLEHHHHHH
modifications: EcCD_D314A
notes: E. coli. cytosine deaminase (EcCD) mutant D314A, without target molecule
Regarding B2, the Kcat in data set [1] (5-FC consumption (Table 5)) is 35.1 ± 1.7 s⁻¹ and 36.2 ± 1.5 s⁻¹; in data set [1] (5-FU generation), 36.2 ± 1.8 s⁻¹ and 35.4 ± 0.8 s⁻¹; in data set [2] (cytosine consumption), 22.3 ± 1.6 s⁻¹; in data set [2] (uracil generation), 24.5 ± 1.1 s⁻¹. The Km in data set [1] (5-FC consumption (Table 5)) was 3800 µM and 4000 µM; in data set [1] (5-FU generation), 3900 ± 600 µM; in data set [2] (cytosine consumption), 2600 ± 400 µM; in data set [2] (uracil generation), 3000 µM and 3100 µM. The “Kcat/Km higher than that of the corresponding WT protein” value in data set [1] (substrate 5-FC) is on record as “about 3.1 times”. Besides, in data set [2] (substrate cytosine), the “Kcat/Km lower than that of the corresponding WT protein” value is “about 12.5 times”. In data set [3], the “relative substrate selectivity to 5-FC higher than the corresponding WT protein” value is on record as “about 17.4 times”. Moreover, the “[Kcat/Km(5-FC)]/{[Kcat/Km(cytosine)] +” value in data set [3] is 0.558 and 0.535; in data set [5], 0.513. Moreover, the “binding with cells” value in data set [4] was “do not have the ability of binding with U87MG and HUVEC cells”.

B3: RGD4C-EcCD_WT: targeted prodrug enzyme fusion protein (SEQ ID NO: 19) (protein)
chain: MGCDCRGDCFCMSNNALQTIINARLPGEEGLWQIHLQDGKISAIDAQSGVMPITENSLDAEQGLVIPPFVEPHIHLDTTQTAGQPNWNQSGTLFEGIERWAERKALLTHDDVKQRAWQTLKWQIANGIQHVRTHVDVSDATLTALKAMLEVKQEVAPWIDLQIVAFPQEGILSYPNGEALLEEALRLRADVVGAIPHFEFTREYGVESLHKTFALAQKYDRLIDVHCDEIDDEQSRFVETVAALAHHEGMGARVTASHTTAMHSYNGAYTSRLFRLLKMSGINFVANPLVNIHLQGRFDTYPKRRGITRVKEMLESGINVCFGHDDVFDPWYPLGTANMLQVLHMGLHVCQLMGYGQINDGLNLITHHSARTLNLQDYGIAAGNSANLIILPAENGFDALRRQVPVRYSVRGGKVIASTQPAQTTVYLEQPEAIDYKRLEHHHHHH
modifications: RGD4C_EcCD_WT
As for B3, the Kcat in data set [1] (5-FC consumption (Table 5)) is 10.7 ± 0.5 s⁻¹; in data set [1] (setting [8]), 10.9 ± 0.5 s⁻¹; in data set [1] (5-FU generation), 10.8 ± 0.6 s⁻¹; in data set [1] (setting [9]), 10.8 ± 0.5 s⁻¹; in data set [2] (cytosine consumption), 148.9 ± 4.7 s⁻¹; in data set [2] (setting [10]), 143.9 ± 5.1 s⁻¹. Further, the figures for the Kcat in data set [2] (uracil generation) and in data set [2] (setting [11]) were 141.7 ± 5.5 s⁻¹ and 150.8 ± 4.4 s⁻¹, respectively. The Km in data set [1] (5-FC consumption (Table 5)) turned out to be 2300 ± 400 µM; in data set [1] (setting [8]) it was 2400 ± 400 µM; in data set [1] (5-FU generation), 2300 ± 500 µM; in data set [1] (setting [9]) it was 2400 ± 500 µM; in data set [2] (cytosine consumption) it was 1700 ± 200 µM; in data set [2] (setting [10]), 1600 ± 200 µM. Moreover, the results for the Km in data set [2] (uracil generation) and in data set [2] (setting [11]) were 1500 ± 200 µM and 1700 ± 100 µM, respectively. The “[Kcat/Km(5-FC)]/{[Kcat/Km(cytosine)] +” value in data set [3] is recorded as 0.047; in data set [3] (listed as RGD4C- EcCDWT) it was 0.048. Further, the “inhibition of binding capacity by RGDfv peptide” value in data set [6] (RGDfv peptide at 10-fold concentration) was “about 80%”; in data set [6] (RGDfv peptide at same concentration), “about 30%”. Also, the “inhibition of binding by RGDfv peptide competition” value in data set [7] is reported as “about 50%”. Besides, in data set [4], the “binding with cells” value was “have the ability of binding with U87MG and HUVEC cells”. Moreover, in data set [4], the “internalization” value is on record as “will enter the internalization”.
